Measured values reported in patent US20190077860A1 (EISAI R AND D MANAGEMENT, published 2019).

B1: humanized antibody No. 76 (antibody, human IgG1, kappa)
heavy: QVQLVQSGSELKKPGASVKVSCKASGYTFTDYSMHWVRQAPGQGLKWMGWINTETGEPTYAQGFTGRFVFSLDTSVSTAYLQISSLKAEDTAVYYCARIPLYYYGSRYWYFDVWGQGTTVTVSSASTKGPSVFPLAPSSKSTSGGTAALGCLVKDYFPEPVTVSWNSGALTSGVHTFPAVLQSSGLYSLSSVVTVPSSSLGTQTYICNVNHKPSNTKVDKRVEPKSCDKTHTCPPCPAPPAAAPSVFLFPPKPKDTLMISRTPEVTCVVVDVSHEDPEVQFNWYVDGVEVHNAKTKPREEQFNSTFRVVSVLTVVHQDWLNGKEYKCKVSNKGLPAPIEKTISKTKGQPREPQVYTLPPSREEMTKNQVSLTCLVKGFYPSDIAVEWESNGQPENNYKTTPPMLDSDGSFFLYSKLTVDKSRWQQGNVFSCSVMHEALHNHYTQKSLSLSPG
light: DIQMTQSPSSLSASVGDRVTITCRASENIYRNLAWYQQKPGKAPKLLVYAATNLADGVPSRFSGSGSGTDYTLTISSLQPEDFATYYCQHFWGTPWTFGQGTKVEIKRTVAAPSVFIFPPSDEQLKSGTASVVCLLNNFYPREAKVQWKVDNALQSGNSQESVTEQDSKDSTYSLSSTLTLSKADYEKHKVYACEVTHQGLSSPVTKSFNRGEC
notes: human Ig kappa; also called L1-4/HA2
B2: humanized antibody No. 67 (antibody, human IgG1, kappa)
heavy: QIQLVQSGSELKKPGASVKVSCKASGYTFTDYSMHWVRQAPGQGLKWMGWINTETGEPTYAQGFTGRFVFSLDTSVSTAYLQISSLKAEDTAVYYCARIPLYYYGSRYWYFDVWGQGTTVTVSSASTKGPSVFPLAPSSKSTSGGTAALGCLVKDYFPEPVTVSWNSGALTSGVHTFPAVLQSSGLYSLSSVVTVPSSSLGTQTYICNVNHKPSNTKVDKRVEPKSCDKTHTCPPCPAPPAAAPSVFLFPPKPKDTLMISRTPEVTCVVVDVSHEDPEVQFNWYVDGVEVHNAKTKPREEQFNSTFRVVSVLTVVHQDWLNGKEYKCKVSNKGLPAPIEKTISKTKGQPREPQVYTLPPSREEMTKNQVSLTCLVKGFYPSDIAVEWESNGQPENNYKTTPPMLDSDGSFFLYSKLTVDKSRWQQGNVFSCSVMHEALHNHYTQKSLSLSPG
light: DIQMTQSPSSLSASVGDRVTITCRASENIYRNLAWYQQKPGKAPKLLVYAATNLADGVPSRFSGSGSGTDYTLTISSLQPEDFATYYCQHFWGTPWTFGQGTKVEIKRTVAAPSVFIFPPSDEQLKSGTASVVCLLNNFYPREAKVQWKVDNALQSGNSQESVTEQDSKDSTYSLSSTLTLSKADYEKHKVYACEVTHQGLSSPVTKSFNRGEC
notes: human Ig kappa; also called L1-4/HA4
B3: humanized antibody No. 77 (antibody, human IgG1, kappa)
heavy: QVQLVQSGSELKKPGASVKVSCKASGYTFTDYSMHWVRQAPGQGLEWMGWINTETGEPTYADDFKGRFVFSLDTSVSTAYLQISSLKAEDTAVYYCARIPLYYYGSRYWYFDVWGQGTTVTVSSASTKGPSVFPLAPSSKSTSGGTAALGCLVKDYFPEPVTVSWNSGALTSGVHTFPAVLQSSGLYSLSSVVTVPSSSLGTQTYICNVNHKPSNTKVDKRVEPKSCDKTHTCPPCPAPPAAAPSVFLFPPKPKDTLMISRTPEVTCVVVDVSHEDPEVQFNWYVDGVEVHNAKTKPREEQFNSTFRVVSVLTVVHQDWLNGKEYKCKVSNKGLPAPIEKTISKTKGQPREPQVYTLPPSREEMTKNQVSLTCLVKGFYPSDIAVEWESNGQPENNYKTTPPMLDSDGSFFLYSKLTVDKSRWQQGNVFSCSVMHEALHNHYTQKSLSLSPG
light: DIQMTQSPSSLSASVGDRVTITCRASENIYRNLAWYQQKPGKAPKLLVYAATNLADGVPSRFSGSGSGTDYTLTISSLQPEDFATYYCQHFWGTPWTFGQGTKVEIKRTVAAPSVFIFPPSDEQLKSGTASVVCLLNNFYPREAKVQWKVDNALQSGNSQESVTEQDSKDSTYSLSSTLTLSKADYEKHKVYACEVTHQGLSSPVTKSFNRGEC
notes: human Ig kappa; also called L1-4/HK1
B4: humanized antibody No. 69 (antibody, human IgG1, kappa)
heavy: QIQLVQSGSELKKPGASVKVSCKASGYTFTDYSMHWVRQAPGQGLKWMGWINTETGEPTYADDFKGRFVFSLDTSVSTAYLQISSLKAEDTAVYYCARIPLYYYGSRYWYFDVWGQGTTVTVSSASTKGPSVFPLAPSSKSTSGGTAALGCLVKDYFPEPVTVSWNSGALTSGVHTFPAVLQSSGLYSLSSVVTVPSSSLGTQTYICNVNHKPSNTKVDKRVEPKSCDKTHTCPPCPAPPAAAPSVFLFPPKPKDTLMISRTPEVTCVVVDVSHEDPEVQFNWYVDGVEVHNAKTKPREEQFNSTFRVVSVLTVVHQDWLNGKEYKCKVSNKGLPAPIEKTISKTKGQPREPQVYTLPPSREEMTKNQVSLTCLVKGFYPSDIAVEWESNGQPENNYKTTPPMLDSDGSFFLYSKLTVDKSRWQQGNVFSCSVMHEALHNHYTQKSLSLSPG
light: DIQMTQSPSSLSASVGDRVTITCRASENIYRNLAWYQQKPGKAPKLLVYAATNLADGVPSRFSGSGSGTDYTLTISSLQPEDFATYYCQHFWGTPWTFGQGTKVEIKRTVAAPSVFIFPPSDEQLKSGTASVVCLLNNFYPREAKVQWKVDNALQSGNSQESVTEQDSKDSTYSLSSTLTLSKADYEKHKVYACEVTHQGLSSPVTKSFNRGEC
notes: human Ig kappa; also called L1-4/HK4
B5: humanized antibody No. 75 (antibody, human IgG1, kappa)
heavy: QVQLVQSGSELKKPGASVKVSCKASGYTFTDYSMHWVRQAPGQGLEWMGWINTETGEPTYAQGFTGRFVFSLDTSVSTAYLQISSLKAEDTAVYYCARIPLYYYGSRYWYFDVWGQGTTVTVSSASTKGPSVFPLAPSSKSTSGGTAALGCLVKDYFPEPVTVSWNSGALTSGVHTFPAVLQSSGLYSLSSVVTVPSSSLGTQTYICNVNHKPSNTKVDKRVEPKSCDKTHTCPPCPAPPAAAPSVFLFPPKPKDTLMISRTPEVTCVVVDVSHEDPEVQFNWYVDGVEVHNAKTKPREEQFNSTFRVVSVLTVVHQDWLNGKEYKCKVSNKGLPAPIEKTISKTKGQPREPQVYTLPPSREEMTKNQVSLTCLVKGFYPSDIAVEWESNGQPENNYKTTPPMLDSDGSFFLYSKLTVDKSRWQQGNVFSCSVMHEALHNHYTQKSLSLSPG
light: DIQMTQSPSSLSASVGDRVTITCRASENIYRNLAWYQQKPGKAPKLLVYAATNLADGVPSRFSGSGSGTDYTLTISSLQPEDFATYYCQHFWGTPWTFGQGTKVEIKRTVAAPSVFIFPPSDEQLKSGTASVVCLLNNFYPREAKVQWKVDNALQSGNSQESVTEQDSKDSTYSLSSTLTLSKADYEKHKVYACEVTHQGLSSPVTKSFNRGEC
notes: constant region: human IgG1 CH1 and hinge, human IgG2 CH2 and CH3 with V234A, G237A, no C-terminal Lys; human Ig kappa; also called L1-4/HA1

Experiments:
Test in all cases: ELISA
[1] = molecular target: T1, human EphA10 extracellular region-SEAP-His protein (human, UniProt Q5JZY3 34-565)
T1 construct: extracellular domain; also called hEphA10-SEAP-His
T1 sequence (looked up): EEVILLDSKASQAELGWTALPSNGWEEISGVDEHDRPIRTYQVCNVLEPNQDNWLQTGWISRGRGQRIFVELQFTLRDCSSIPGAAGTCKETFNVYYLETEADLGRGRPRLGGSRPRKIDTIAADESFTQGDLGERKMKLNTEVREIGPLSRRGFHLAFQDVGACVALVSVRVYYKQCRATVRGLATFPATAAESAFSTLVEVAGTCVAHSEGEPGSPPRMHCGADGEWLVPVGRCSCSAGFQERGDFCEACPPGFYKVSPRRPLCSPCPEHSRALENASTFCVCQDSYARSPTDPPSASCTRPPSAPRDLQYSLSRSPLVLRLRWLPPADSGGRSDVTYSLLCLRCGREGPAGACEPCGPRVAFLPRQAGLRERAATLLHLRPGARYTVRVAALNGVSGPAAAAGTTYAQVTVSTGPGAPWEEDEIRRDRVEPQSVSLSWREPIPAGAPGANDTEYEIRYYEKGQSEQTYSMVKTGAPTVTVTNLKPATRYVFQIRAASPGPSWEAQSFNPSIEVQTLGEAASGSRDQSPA

[2] = molecular target: T2, human EphA3 extracellular region-SEAP-His protein (human, UniProt P29320 21-541)
T2 construct: extracellular domain; also called hEphA3-SEAP-His
T2 sequence (looked up): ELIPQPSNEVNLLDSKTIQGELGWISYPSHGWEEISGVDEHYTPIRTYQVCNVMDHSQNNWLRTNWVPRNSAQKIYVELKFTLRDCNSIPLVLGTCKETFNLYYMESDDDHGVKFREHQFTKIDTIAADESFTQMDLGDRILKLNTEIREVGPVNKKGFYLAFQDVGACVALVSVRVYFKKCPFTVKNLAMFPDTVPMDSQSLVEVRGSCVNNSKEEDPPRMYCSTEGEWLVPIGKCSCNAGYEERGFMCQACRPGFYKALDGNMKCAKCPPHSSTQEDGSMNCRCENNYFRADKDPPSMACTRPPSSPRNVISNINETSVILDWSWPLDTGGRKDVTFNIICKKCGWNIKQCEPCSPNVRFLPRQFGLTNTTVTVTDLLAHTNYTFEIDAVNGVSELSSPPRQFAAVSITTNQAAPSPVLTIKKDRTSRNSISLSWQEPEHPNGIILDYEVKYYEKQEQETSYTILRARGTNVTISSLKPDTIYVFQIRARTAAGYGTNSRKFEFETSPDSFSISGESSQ

[3] = molecular target: T3, human EphB3 extracellular region-SEAP-His protein (human, UniProt P54753 34-559)
T3 construct: extracellular domain; also called hEphB3-SEAP-His
T3 sequence (looked up): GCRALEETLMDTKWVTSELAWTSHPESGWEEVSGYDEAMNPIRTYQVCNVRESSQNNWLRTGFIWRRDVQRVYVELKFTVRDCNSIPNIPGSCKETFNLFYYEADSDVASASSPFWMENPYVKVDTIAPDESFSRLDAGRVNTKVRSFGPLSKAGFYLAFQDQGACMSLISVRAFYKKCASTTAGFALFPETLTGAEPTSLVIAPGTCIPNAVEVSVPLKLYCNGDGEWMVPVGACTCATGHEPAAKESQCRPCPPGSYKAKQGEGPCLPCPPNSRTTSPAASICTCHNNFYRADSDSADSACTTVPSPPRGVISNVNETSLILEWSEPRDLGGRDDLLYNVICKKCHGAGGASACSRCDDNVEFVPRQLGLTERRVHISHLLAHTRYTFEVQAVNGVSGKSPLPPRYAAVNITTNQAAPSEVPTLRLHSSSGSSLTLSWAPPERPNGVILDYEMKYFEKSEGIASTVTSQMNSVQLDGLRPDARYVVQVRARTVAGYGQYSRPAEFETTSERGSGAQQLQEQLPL

[4] = molecular target: SEAP-His (UniProt P05187 23-511)
Sequence of SEAP-His (P05187 23-511): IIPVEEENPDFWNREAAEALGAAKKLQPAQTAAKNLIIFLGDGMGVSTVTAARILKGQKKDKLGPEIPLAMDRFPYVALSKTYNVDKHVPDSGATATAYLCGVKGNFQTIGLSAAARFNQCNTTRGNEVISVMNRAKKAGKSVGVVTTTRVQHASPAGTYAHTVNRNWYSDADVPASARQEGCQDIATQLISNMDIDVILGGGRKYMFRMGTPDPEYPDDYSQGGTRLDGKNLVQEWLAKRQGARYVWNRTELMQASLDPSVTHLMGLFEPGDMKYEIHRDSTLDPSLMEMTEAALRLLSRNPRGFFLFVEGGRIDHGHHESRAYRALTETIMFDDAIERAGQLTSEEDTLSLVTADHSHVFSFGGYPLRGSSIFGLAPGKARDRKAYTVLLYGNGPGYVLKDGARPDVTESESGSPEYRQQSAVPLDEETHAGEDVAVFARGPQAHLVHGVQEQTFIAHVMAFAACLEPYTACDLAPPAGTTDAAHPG

[5] = molecular target: T4, human EphB4 extracellular region-SEAP-His protein (human, UniProt P54760 16-539)
T4 construct: extracellular domain; also called hEphB4-SEAP-His
T4 sequence (looked up): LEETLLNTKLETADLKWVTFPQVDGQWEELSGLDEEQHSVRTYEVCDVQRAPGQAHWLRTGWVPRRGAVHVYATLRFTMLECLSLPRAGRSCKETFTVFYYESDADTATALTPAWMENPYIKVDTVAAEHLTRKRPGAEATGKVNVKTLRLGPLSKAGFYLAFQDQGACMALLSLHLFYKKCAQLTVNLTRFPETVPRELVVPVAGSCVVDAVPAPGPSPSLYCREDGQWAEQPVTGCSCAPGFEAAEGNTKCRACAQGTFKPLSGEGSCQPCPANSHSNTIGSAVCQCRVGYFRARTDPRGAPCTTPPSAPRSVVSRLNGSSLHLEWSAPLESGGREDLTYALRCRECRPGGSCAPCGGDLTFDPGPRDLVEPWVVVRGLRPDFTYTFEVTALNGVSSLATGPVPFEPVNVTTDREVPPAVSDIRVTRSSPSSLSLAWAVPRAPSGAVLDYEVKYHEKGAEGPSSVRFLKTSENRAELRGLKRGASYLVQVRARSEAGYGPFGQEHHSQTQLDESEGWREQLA

Row | Binder | A450 as % of hEphA4-SEAP-His [1] | A450 as % of hEphA4-SEAP-His [2] | A450 as % of hEphA4-SEAP-His [3] | A450 as % of hEphA4-SEAP-His [4] | A450 as % of hEphA4-SEAP-His [5]
1 | B1 | 4.7% | 4.9% | 5% | 5.5% | 5.2%
2 | B2 | 4.6% | 4.8% | 4.9% | 5% | 4.9%
3 | B3 | 4.5% | 4.5% | 4.6% | 4.7% | 4.5%
4 | B4 | 5.4% | 5.4% | 5.9% | 6.1% | 5.5%
5 | B5 | 4.4% | 4.8% | 4.7% | 4.4% | 4.6%
